Two molecules from PMC12289034, “A highly potent human antibody neutralizing all serotypes of BK polyomavirus” (PLOS Pathogens, 2025) can be followed below.

Assay [1] addresses BKPyV VP1 serotype Ib1 pentamer (aa 31-300) (BK polyomavirus) (UniProt P03088). The assay is described as follows: crystal structure; VP1 Ib1 pentamer mixed with 319C07 Fab 1:1.7, complex isolated by SEC; hanging drop, 20 °C, 21% PEG1500, 0.1 M MIB pH 4.75; 1.96 Å.
Assay [2] deals with T1, BKPyV VP1 serotype II pentamer (aa 31-300) (BK polyomavirus serotype II, isolate …, UniProt A1IHZ0, strain). Description: cell-based or functional assay.
Assay [3] addresses T2, BKPyV VP1 serotype III (BK polyomavirus, serotype III (isolate …, UniProt P14996, strain)). The assay is described as follows: cell-based or functional assay.
The target in assay [4] is T3, BKPyV VP1 serotype IVc2 pentamer (aa 31-300) (BK polyomavirus serotype IVc2, isolate …, UniProt B6VQF5, strain). Description: cell-based or functional assay.
In assay [5] the target is T1, BKPyV VP1 serotype II pentamer (aa …). The assay is described as follows: ELISA; VP1 coated on the plate (1 µg/ml, 4 °C over weekend), blocked with 5% skim milk; antibody dilutions in PBS with 0.5% skim milk 1 h; HRP goat anti-human IgG; apparent EC50, three-parameter fit. Particulars: both partners purified.
The target in assay [6] is T2, BKPyV VP1 serotype III. Described as above. Particulars: both partners purified.
In assay [7] the target is T3, BKPyV VP1 serotype IVc2 pentamer (aa …). Described as above. Particulars: both partners purified.

On to “BKPyV VP1 serotype Ib1 pentamer (aa 31-300) (from UniProt P03088 31-300) (domain or fragment)”, for which, in assay [1], the stoichiometry N came to 5.

B1: mAb 319C07 (antibody, V domains shown)
VH: QVQLQQWGAGLLKPSETLSLTCAVYRGSFSAYYWTWFRQPPGKGLEWIGEINHRGYTNYNPSLRGRVSISVDTSKKQFSLKLRSVNAADTAVYYCATLRSTSGWHDYFDYWGQGTLVTVSS
VL: EIVLTQSPGTLSLSPGERATLSCRASQSVSSSYLAWYQQTPGQAPRLLIYGASSRATGIPDRFSGSGSGTDFTLTISRLEPEDFVVYFCLQYGSSPLTFGPGTKVDIK
notes: heavy chain variable region of 319C07; human IgG1 heavy chain constant region (soluble IgG1 expression vector); kappa light chain of 319C07; also called antibody 319C07; AntiBKV; source: HEK293F, transient transfection, purified from supernatant (Protein G)
Take B1: the “IC50 of neutralisation of BKPyV serotype II pseudovirus (luciferase in HEK293TT cells, 72 h)” value in assay [2] was found to be 0.00035 nM. Moreover, the “IC50 of neutralisation of BKPyV serotype III pseudovirus (luciferase in HEK293TT cells, 72 h)” value with BKPyV VP1 serotype III [3] came to 0.0295 nM. In addition, the “IC50 of neutralisation of BKPyV serotype IV pseudovirus (luciferase in HEK293TT cells, 72 h)” value in assay [4] turned out to be 0.00088 nM. Moreover, the EC50 (in assay [5]; with BKPyV VP1 serotype III [6]; in assay [7]) was 0.06 nM in each case.
